Test results taken from the supplement of paper PMC7877785.
± gives the uncertainty stated by the source.

Assay: self-splicing fitness, log relative to wild type (ln ratio); higher = more splicing; Tetrahymena group I intron in knt gene, E. coli kanamycin selection, DiMSum; sequences stand for … in CUCUCU…GGAGGGAAAAGUUAUCAGGCAUGCACCUGGUAGCUAGUCUUUAAACCAAUAGAUUGCAUCGGUUUAAAAGGCAAGACCGUCAAAUUGCGGGAAAGGGGUCAACAGCCGUUCAGUACCAAGUCUCAGGGGAAACUUUGAGAUGGCCUUGCAAAGGGUAUGGUAAUAAGCUGACGGACAUGGUCCUAACCACGCAGCCAAGUCCUAAGUCAACAGAUCUUCUGUUGAUAUGGAUGCAGUUCACAGACUAAAUGUCGGUCGGGGAAGAUGUAUUCUUCUCAUAAGAUAUAGUCGGACCUCUCCUUAAUGGGAGCUAGCGGAUGAAGUGAUGCAACACUGGAGCCGCUGGGAACUAAUUUGUAUGCGAAAGUAUAUUGAUUAGUUUUGGAGUACUCGUGGUCG
Outline: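 Fitness was computed with DiMSum as the error-weighted combination of replicate fold changes, kanamycin versus none, each normalised to wild type. The library randomised all eight intron nucleotides of the P1ex region, with the intron placed in the knt kanamycin-resistance gene on pET-22b(+) in E. coli BL21(DE3). Six replicate transformations were grown overnight at 37°C or 30°C on LB agar with or without 25 μg/mL kanamycin, plus 100 μg/mL carbenicillin, 50 μM IPTG and 0.2% rhamnose. Pooled colonies were amplicon-sequenced on an Illumina HiSeq 2500.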

Row | Sequence | self-splicing fitness (ln) (30 °C) | self-splicing fitness (ln) (37 °C)
1 | UAAUAGCAAUAUUACGACGG | -1.51 ± 0.11 | -0.463 ± 0.13
2 | GCCAAGCAAUAUUACGUGUA | -1.41 ± 0.068 | -0.64 ± 0.062
3 | GUCUAGCAAUAUUACGUAAA | -0.871 ± 0.085 | 0.379 ± 0.092
4 | CUGAAGCAAUAUUACGAAAC | -3.39 ± 0.25 | –
5 | ACAUAGCAAUAUUACGGGUC | -3.93 ± 0.25 | -3.24 ± 0.28
6 | CCCGAGCAAUAUUACGUCCC | -2.8 ± 0.24 | -2.3 ± 0.49
7 | GCUCAGCAAUAUUACGGACU | 0.158 ± 0.12 | 0.485 ± 0.19
8 | AAGCAGCAAUAUUACGUAAG | -1.49 ± 0.074 | -1.02 ± 0.088
9 | UGUAAGCAAUAUUACGACGU | -1.29 ± 0.11 | -0.138 ± 0.13
10 | UAACAGCAAUAUUACGCGUG | -0.718 ± 0.041 | 0.173 ± 0.055
11 | AAGUAGCAAUAUUACGUAAC | -1.51 ± 0.13 | -2.24 ± 0.24
12 | UUCCAGCAAUAUUACGCCCA | -1.38 ± 0.18 | -0.115 ± 0.17
13 | UUACAGCAAUAUUACGAUAG | -0.427 ± 0.056 | 0.204 ± 0.07
14 | GUGUAGCAAUAUUACGAGUA | – | -1.56 ± 0.19
15 | GUCUAGCAAUAUUACGCGCG | -1.36 ± 0.15 | -0.687 ± 0.14
16 | CGUUAGCAAUAUUACGACGU | -2.74 ± 0.14 | -2.05 ± 0.16
17 | CCAAAGCAAUAUUACGGUGU | -3.74 ± 0.19 | -2.97 ± 0.15
18 | GGCUAGCAAUAUUACGUCGG | -3.95 ± 0.29 | -2.61 ± 0.26
19 | CCUGAGCAAUAUUACGGAAA | -3.53 ± 0.35 | -1.92 ± 0.28
20 | AACCAGCAAUAUUACGUCAC | -3.92 ± 0.13 | -2.66 ± 0.13
21 | CGAUAGCAAUAUUACGGGGC | -3.2 ± 0.35 | -2.56 ± 0.39
22 | UAAUAGCAAUAUUACGUGGC | -3.76 ± 0.35 | -2.88 ± 0.43
23 | CCGCAGCAAUAUUACGGUUU | -3.45 ± 0.14 | -2.86 ± 0.16
24 | CUUAAGCAAUAUUACGUCGA | -1.85 ± 0.19 | -2.19 ± 0.38
25 | CAAGAGCAAUAUUACGUCAA | -3.43 ± 0.43 | -2.73 ± 0.25
26 | AACUAGCAAUAUUACGAUCA | -0.213 ± 0.099 | -0.0939 ± 0.11

Row | Sequence | self-splicing fitness (ln) (30 °C) | self-splicing fitness (ln) (37 °C)
27 | CUAGAGCAAUAUUACGAUGC | -2.31 ± 0.42 | -1.94 ± 0.43
28 | AGCGAGCAAUAUUACGUACU | -0.777 ± 0.088 | -0.674 ± 0.092
29 | UUGAAGCAAUAUUACGUGCU | -3.06 ± 0.17 | -1.97 ± 0.16
30 | ACAGAGCAAUAUUACGCACU | -3.25 ± 0.17 | -1.33 ± 0.14
31 | AGGUAGCAAUAUUACGGAGU | -3.487 ± 0.021 | -1.72 ± 0.034
32 | AGGUAGCAAUAUUACGAGAC | -3.88 ± 0.039 | -2.69 ± 0.044
33 | AAACAGCAAUAUUACGGUCC | -2.09 ± 0.12 | -0.775 ± 0.11
34 | CAUCAGCAAUAUUACGUAGG | -0.284 ± 0.05 | 0.412 ± 0.077
35 | GCAAAGCAAUAUUACGCAUC | -1.98 ± 0.16 | -1.4 ± 0.17
36 | UGACAGCAAUAUUACGUUUG | -2 ± 0.071 | -1.03 ± 0.081
37 | GCUUAGCAAUAUUACGCUAC | – | -3.24 ± 0.28
38 | CGAAAGCAAUAUUACGACGG | 0.0482 ± 0.089 | 0.569 ± 0.12
39 | GUUAAGCAAUAUUACGCAUC | -2.3 ± 0.1 | -0.951 ± 0.095
40 | GGCCAGCAAUAUUACGAUCG | -3.35 ± 0.3 | -1.27 ± 0.15
41 | AUUAAGCAAUAUUACGUGCU | -1.58 ± 0.15 | -0.835 ± 0.14
42 | CGUCAGCAAUAUUACGAGCA | -0.74 ± 0.14 | -0.627 ± 0.14
43 | CGUAAGCAAUAUUACGGUCU | -2.56 ± 0.092 | -1.46 ± 0.081
44 | GCUUAGCAAUAUUACGGCUU | -0.91 ± 0.089 | -0.586 ± 0.11
45 | UGUUAGCAAUAUUACGAAUA | -1.32 ± 0.14 | -0.0107 ± 0.14
46 | CCCAAGCAAUAUUACGUAAU | -4.69 ± 0.17 | -2.97 ± 0.19
47 | CGCCAGCAAUAUUACGGAUU | -3.66 ± 0.19 | -0.897 ± 0.097
48 | GUAAAGCAAUAUUACGUCAG | -3.53 ± 0.32 | -1.83 ± 0.19
49 | GCCGAGCAAUAUUACGCCCG | -2.68 ± 0.26 | –
50 | GUUAAGCAAUAUUACGUCUA | -0.524 ± 0.1 | -0.261 ± 0.099
51 | GAGGAGCAAUAUUACGUCCA | -1.23 ± 0.12 | -0.83 ± 0.16
52 | AUAAAGCAAUAUUACGUAUC | -3.77 ± 0.18 | -2.02 ± 0.19

Row | Sequence | self-splicing fitness (ln) (30 °C) | self-splicing fitness (ln) (37 °C)
53 | UUUGAGCAAUAUUACGAUCG | -2.23 ± 0.23 | -1.81 ± 0.29
54 | UUGAAGCAAUAUUACGGUAC | -2.04 ± 0.22 | -2.44 ± 0.31
55 | AUUUAGCAAUAUUACGUGCC | -0.606 ± 0.15 | 0.118 ± 0.14
56 | AUCUAGCAAUAUUACGUGAG | -0.412 ± 0.095 | -0.00344 ± 0.17
57 | UGCUAGCAAUAUUACGAUAG | -2.49 ± 0.1 | -0.62 ± 0.1
58 | AGAAAGCAAUAUUACGUAGG | -2.89 ± 0.14 | -2.16 ± 0.15
59 | UAUGAGCAAUAUUACGUAAA | -3.46 ± 0.32 | -1.59 ± 0.19
60 | UCAAAGCAAUAUUACGAAUC | – | -2.76 ± 0.38
61 | GUUCAGCAAUAUUACGGACU | -3.7 ± 0.14 | -2.88 ± 0.18
62 | GAAGAGCAAUAUUACGUUUC | -2.8 ± 0.14 | -2.74 ± 0.22
63 | ACAGAGCAAUAUUACGUAUG | -2.91 ± 0.17 | -3.39 ± 0.37
64 | AUGAAGCAAUAUUACGUACC | -0.639 ± 0.067 | 0.16 ± 0.1
65 | GCAGAGCAAUAUUACGGACA | – | -0.844 ± 0.3
66 | GUGCAGCAAUAUUACGUUAG | -2.62 ± 0.14 | -0.353 ± 0.11
67 | ACUGAGCAAUAUUACGACAU | -2.109 ± 0.015 | -1.12 ± 0.034
68 | GCAUAGCAAUAUUACGAUGG | -1.01 ± 0.09 | -0.54 ± 0.11
69 | AGGAAGCAAUAUUACGACUG | -0.619 ± 0.094 | 0.0357 ± 0.1
70 | UUAUAGCAAUAUUACGCCAA | – | -0.44 ± 0.25
71 | GCAAAGCAAUAUUACGCUCU | -1.27 ± 0.075 | -0.565 ± 0.097
72 | AGUUAGCAAUAUUACGCUUC | -2.8 ± 0.18 | –
73 | GACAAGCAAUAUUACGUCCA | -2.8 ± 0.14 | -1.42 ± 0.13
74 | GACGAGCAAUAUUACGCCUC | -3.23 ± 0.37 | -1.86 ± 0.38
75 | GUCAAGCAAUAUUACGUUCG | -2.63 ± 0.12 | -2.1 ± 0.15
76 | GCUCAGCAAUAUUACGAAAU | -1.13 ± 0.11 | -0.319 ± 0.12
77 | GGGAAGCAAUAUUACGCUUA | -0.798 ± 0.12 | -0.449 ± 0.12
